Laboratory results reported in paper PMC12440827 (Nature structural & molecular biology, 2025).

Biological target: FIP200 N-terminal domain (1-640), untagged, of the ULK1C core (human, UniProt Q8TDY2 1-640)
Assay: cryo-EM structure; ULK1C (2:1:1) core, SEC peak in 25 mM HEPES pH 7.5, 150 mM NaCl, 1 mM MgCl2, 1 mM TCEP; graphene grids, 300 kV Titan Krios
Conditions: both partners purified

FIP200 N-terminal domain (1-640), untagged, of the ULK1C core, sequence (Q8TDY2 1-640): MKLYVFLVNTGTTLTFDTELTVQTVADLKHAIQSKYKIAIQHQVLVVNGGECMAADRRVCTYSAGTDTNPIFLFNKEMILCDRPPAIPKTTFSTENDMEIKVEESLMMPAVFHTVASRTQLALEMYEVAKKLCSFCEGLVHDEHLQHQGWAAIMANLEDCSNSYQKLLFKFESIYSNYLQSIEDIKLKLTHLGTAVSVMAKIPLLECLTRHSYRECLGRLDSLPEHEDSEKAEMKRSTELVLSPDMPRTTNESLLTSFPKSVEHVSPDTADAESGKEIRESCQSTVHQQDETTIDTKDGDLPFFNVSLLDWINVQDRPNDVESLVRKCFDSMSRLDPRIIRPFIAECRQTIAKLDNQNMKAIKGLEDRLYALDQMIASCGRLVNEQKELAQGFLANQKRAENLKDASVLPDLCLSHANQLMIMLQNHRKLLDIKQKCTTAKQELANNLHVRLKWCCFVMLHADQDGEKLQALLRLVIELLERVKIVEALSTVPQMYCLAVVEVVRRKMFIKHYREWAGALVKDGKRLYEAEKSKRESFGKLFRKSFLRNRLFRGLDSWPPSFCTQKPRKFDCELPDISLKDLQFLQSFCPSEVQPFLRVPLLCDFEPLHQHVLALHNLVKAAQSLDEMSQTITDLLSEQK

binding result: binds
B1: ATG13 (363-517), the ATG13 part of the ATG13-ULK1 fusion chain (domain or fragment, human, UniProt O75143 363-517, looked up)
chain: HDVLETIFVRKVGAFVNKPINQVTLTSLDIPFAMFAPKNLELEDTDPMVNPPDSPETESPLQGSLHSDGSSGGSSGNTHDDFVMIDFKPAFSKDDILPMDLGTFYREFQNPPQLSSLSIDIGAQSMAEDLDSLPEKLAVHEKNVREFDAFVETLQ
